Measurements taken from patent publication US20190309034A1 (Boehringer Ingelheim, published 2019).
Each block holds one binder with its values, some of them ahead of it.

Legend:
[1] = biological target: Recombinant soluble trimeric human BAFF (furin-cleaved human BAFF 134-285) (human, UniProt Q9Y275 134-285); test: cell-based or functional assay
[2] = biological target: Recombinant soluble 60-mer human BAFF (His-HuBAFF 134-285) (human, UniProt Q9Y275 134-285); test: cell-based or functional assay

B2: 384D5A2 (antibody, V domains shown)
VH: QVTLKESGPGILQPSQTLSLTCSFSGFSLNTYGMGVGWIRQPSGKGLEWLANIWWNDDKYYNSALKSRLAISKDASNSQVFLKISSVDTTDTATYYCAQVAATIVTTYGAWFAYWGQGTLVTVSA
VL: DIQMTQSPASLSVSVGETVTITCRSSENIYSSLAWYQQKQGKSPQLLVYAATNLAKGVPSRFSGSGSGTQYSLKINSLQSEDFGSYFCQHFWGSPFAFGSGTKLEIK
Soluble trimeric huBAFF (50 pM) Neutralization IC50 [1]: 42 pM
Soluble trimeric huBAFF (50 pM) Neutralization IC90 [1]: 765 pM
Soluble 60-mer huBAFF (4 pM) Neutralization IC50 [2]: 15 pM
Soluble 60-mer huBAFF (4 pM) Neutralization IC90 [2]: 44 pM

B3: 394F5A5 (antibody, V domains shown)
VH: VTLKESGPGILQPSQTLSLTCSFSGFSLRTFGMGVGWIRQPSGKGLEWLAHIWWNDEKYYNPTLKSRLTISKDTSKNQVFLRIANVDTAVTAAYYCARIGPSITTVVEGFPYWGQGTLVTVSA
VL: DIVMTQSQKFMSTTIGDRVSITCKASQNVGSAVAWYQQKPGQPPKLLIYSTSNRYTGVPDRFTGSRSGTDFTLTVSNMQSEDLADYFCQQYASYPLTFGTGTKLELK
Soluble trimeric huBAFF (50 pM) Neutralization IC50 [1]: 16 pM
Soluble trimeric huBAFF (50 pM) Neutralization IC90 [1]: 433 pM
Soluble 60-mer huBAFF (4 pM) Neutralization IC50 [2]: 7 pM
Soluble 60-mer huBAFF (4 pM) Neutralization IC90 [2]: 29 pM

B4: 381A6A9 (antibody, V domains shown)
VH: QVQLQQSGPELVKPGGSVKISCKAAGYSLTSYYIHWVKQRPGQGLEWIGLIFPGSGNSKYIEKFKGKATLTADTSSNTAYMQLSSLTSEDSAVYYCTRGDFGNYLAYWYFDVWGTGTTVTVSS
VL: DIKMTQSPSSIYASLGERVTITCKASQDINSYLSWFQQKPGKSPKTLMYRANRLVDGVPSRFSGSGSGQDYSLTISSLEYEDMGNYYCLQYDEFPYTFGGGAKLEIK
Soluble trimeric huBAFF (50 pM) Neutralization IC50 [1]: 44 pM
Soluble trimeric huBAFF (50 pM) Neutralization IC90 [1]: 240 pM
Soluble 60-mer huBAFF (4 pM) Neutralization IC50 [2]: 17 pM
Soluble 60-mer huBAFF (4 pM) Neutralization IC90 [2]: 42 pM

The next lines start with the values.

Soluble trimeric huBAFF (50 pM) Neutralization IC50 [1]: 28 pM
Soluble trimeric huBAFF (50 pM) Neutralization IC90 [1]: 336 pM
Soluble 60-mer huBAFF (4 pM) Neutralization IC50 [2]: 21 pM
Soluble 60-mer huBAFF (4 pM) Neutralization IC90 [2]: 100 pM
B1: 431G5A3 (antibody, V domains shown)
VH: QLQQSGPELVKPGASVKLSCKASGYTFTDYSIHWVKQSPGQGLEWIGWIYPGSDNTKYNDKFKGKASMTADKSSRTVYMHLSSLTSEESAVYFCARDYRRYYAMDYWGQGTSVTVSS
VL: KIVLTQSSASLAVSLGQRATISCRASESVDRYGNSLMHWYQQKPGQPPKLLIYIASNLESGVPARFSGSGSRTDFTLTIDPVEADDAATYYCQQNNEDPRTFGGGTKLEIK

Soluble trimeric huBAFF (50 pM) Neutralization IC50 [1]: 38 pM
Soluble trimeric huBAFF (50 pM) Neutralization IC90 [1]: 491 pM
Soluble 60-mer huBAFF (4 pM) Neutralization IC50 [2]: 27 pM
Soluble 60-mer huBAFF (4 pM) Neutralization IC90 [2]: 154 pM
B5: 418F6D9 (antibody, V domains shown)
VH: QVQLQQSGPELVKPGASVKLSCKASGYTFTDYSIHWVKQSPGQGLEWIGWIYPGSGNTKYNDKFKGKATMTADKSSRTVYMQLSSLTSEESAVYFCARDYRRYYAIDYWGQGTSVTVSS
VL: IVLTQSSASLAVSLGQRATISCRASESVDSYGNSLMHWYQQKPGQPPKLLIYIASNLESGVPARFSGSGSRTDFTLTIDPVEADDAATYYCQQNSEDPRTFGGGTKLEIK

Soluble trimeric huBAFF (50 pM) Neutralization IC50 [1]: 31 pM
Soluble trimeric huBAFF (50 pM) Neutralization IC90 [1]: 390 pM
Soluble 60-mer huBAFF (4 pM) Neutralization IC50 [2]: 16 pM
Soluble 60-mer huBAFF (4 pM) Neutralization IC90 [2]: 44 pM
B6: 409F12A11 (antibody, V domains shown)
VH: IQLQQSGPELVKPGASMKISCKASGYTFTDKYINWVKQRPGQGLEWIGWIYPGSGNTKYNEKFKGMATLTVDTSSNTAYIHLSSLTSEDSAVYFCARGIIYYYDGSYPYALDYWGQGTSVTVSS
VL: DIVLTQSPASLALSLGQRATISCRATKGVSKSGYSYMHWYQQKPGQPPKLLIYLASNLESGVPARFSGSGSGTDFTLNIHPVEEEDVATYYCQHSRELPLTFGAGTKLELK
